This passage reports 灵敏度 (detection sensitivity) and 灵敏度 fold against 市售抗体 results from CN101643510A.

In assay [1] the target is CD25人源化单抗 (Zenapax, ROCHE公司产品). As to the kind of experiment: sandwich ELISA, 5G7 coated at 1 μg/ml, Zenapax titrated, HRP anti-human IgG Fc gamma detection. Background: In an ELISA, binding on a coated surface is turned into a signal by an enzyme label.
Assay [2] addresses CD25人源化单抗 (Zenapax, ROCHE公司产品). As to the kind of experiment: sandwich ELISA, compared with the commercial anti-kappa capture antibody.

B1: 重组抗CD25人源化单克隆抗体的抗体 5G7 (antibody, V domains shown)
VH: EVKLEESGGGLEQPGGSMKLSCVASGFTFSNYWMNWVRQSPDKGLEWVAQIRWKSDNYATHYAESVKGRFSISRDDSKSSVYLQMNNLRVEDSGIYYCTGGGSYVAHWGQGTLVTVSA
VL: DIVLTQSPASLAVSLGQSVTVSCRASESVENYGTTLMQWYQQKPGQPPKLLIYGVSNVESGVPARFSGSGSGTDFTLNIHPVEEDDIAMYFCQQSRKVPWTFGGGTKLEIKR
Take B1: in assay [1], the 灵敏度 (detection sensitivity) was 0.01 ng/mL. The molecule also had a 灵敏度 fold against 市售抗体 in assay [2] of 100 fold.
